Experiment [1] addresses T1, human FcγRIIb receptor on CHO-K1 cells (clone 223) (human, UniProt P31994 43-310).
T1 sequence (looked up): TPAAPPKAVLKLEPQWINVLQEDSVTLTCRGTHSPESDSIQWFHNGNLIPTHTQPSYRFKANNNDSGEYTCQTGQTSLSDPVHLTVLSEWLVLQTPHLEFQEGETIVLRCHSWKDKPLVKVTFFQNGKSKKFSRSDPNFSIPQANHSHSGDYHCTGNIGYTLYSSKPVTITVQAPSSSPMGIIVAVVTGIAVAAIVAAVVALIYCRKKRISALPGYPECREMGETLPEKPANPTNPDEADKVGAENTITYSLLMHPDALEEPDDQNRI
Put plainly: cell-based or functional assay.

The target in experiment [2] is T2, human CCL2 (MCP1) - wild type (wt) (human, UniProt P13500 24-99). Nature of the experiment: cell-based or functional assay.
Experiment [3] addresses T3, human FcγRIIa on CHO-K1 cells (clone 138) (human, UniProt P12318 34-317).
T3 sequence (looked up): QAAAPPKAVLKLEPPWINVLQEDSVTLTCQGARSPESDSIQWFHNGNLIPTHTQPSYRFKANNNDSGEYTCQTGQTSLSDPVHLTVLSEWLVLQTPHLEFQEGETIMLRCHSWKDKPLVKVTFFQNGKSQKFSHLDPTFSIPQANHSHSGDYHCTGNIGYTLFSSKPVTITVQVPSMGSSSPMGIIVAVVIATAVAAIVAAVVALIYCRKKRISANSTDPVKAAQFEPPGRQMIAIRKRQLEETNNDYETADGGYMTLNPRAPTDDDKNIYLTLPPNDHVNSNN
Put plainly: cell-based or functional assay.

In experiment [4] the target is T1, human FcγRIIb receptor on CHO-K1 cells …. Nature of the experiment: cell-based or functional assay. The source holds these as a separate data set.
For experiment [5], the target named is T2, human CCL2 (MCP1) - wild type (wt). Nature of the experiment: SPR T200, 25 C, anti-human Fc capture, 1:1 model, pH 5.5. As for the experimental part:
(§1) An antibody capture system was established. 13000 MAb<h-Fc-pan>M-R10Z8E9-IgG (Roche) were immobilized at 25° C. at 18 μg/ml in 10 mM sodium acetate buffer pH 5.0, by EDC/NHS coupling as described by the manufacturer. The capture system was regenerated by an injection at 20 μl/min with HBS buffer (100 mM HEPES pH 7.4, 1.5 M NaCl, 0.05% (w/v) Tween 20), followed by a 1 min 15 see injection with 10 mM NaOH and two 10 mM glycine buffer pH 2.5 injections for 1 min. Antibodies were captured were injected for 30 see at 10 μl/min at 80 nM concentration diluted in the respective system buffer. […] The analyte contact time was 3 min and the dissociation time was 10 min. Analyte kinetics were performed at 50 μl/min.
(§2) The Biaevaluation software V.3.0 was used according to the instructions of the manufacturer GEHC. A 1:1 binding model with RMAX local was applied to determine kinetic rates.

The target is the same in experiment [6]. Put plainly: SPR T200, 25 C, anti-human Fc capture, 1:1 model, pH 5.9. The procedure: as §1, §2
The target is the same in experiment [7]. Put plainly: SPR T200, 25 C, anti-human Fc capture, 1:1 model, pH 7.9. As for the experimental part: as §1, §2
The target is the same in experiment [8]. Nature of the experiment: SPR T200, 25 C, anti-human Fc capture, 1:1 model, pH 6.3.
Experiment [9] has the same target. Put plainly: SPR T200, 25 C, anti-human Fc capture, 1:1 model, pH 8.3. The procedure:
as §1, §2

Experiment [10] shares this target. Put plainly: SPR T200, 25 C, anti-human Fc capture, 1:1 model, pH 7.4. The procedure:
as §1, §2

Experiment [11] has the same target. Nature of the experiment: SPR T200, 25 C, anti-human Fc capture, 1:1 model, pH 7.1. As for the experimental part: as §1, §2
For experiment [12] the target is unchanged. Put plainly: SPR, C1 chip, anti-human Fc capture, 25 C, pH 7.4, Langmuir 1:1. As for the experimental part:
The sample and system buffer was PBS-T (10 mM phosphate buffered saline including 0.05% Tween20) pH 7.4. The flow cell was set to 25° C.—and the sample block set to 12° C.—and primed with running buffer twice. The bispecific antibody was captured by injecting a 2 μg/ml solution for 60 see at a flow rate of 10 μl/min. Association was measured by injection of human CCL2 (wt) in various concentrations in solution for 150 see at a flow rate of 30 μl/min starting with 30 nM in 1:10 dilutions. The dissociation phase was monitored for up to 1200 sec and triggered by switching from the sample solution to running buffer. […] Bulk refractive index differences were corrected by subtracting the response obtained from a goat anti human IgG Fc surface. Blank injections are also subtracted (=double referencing). For calculation of kinetic parameters, the Langmuir 1:1 model was used.

The target is the same in experiment [13]. Put plainly: SPR T200, 25 C, anti-human Fc capture, 1:1 model, pH 6.7.
The target is the same in experiment [14]. Put plainly: SPR T200, 37 C, antibody captured, 1:1 model. As for the experimental part: (§3) Antibody clone supernatants were diluted 1:2 in system buffer and were captured for 1 min at 5 μl/min. […] Analyte kinetics were performed at 30 μl/min. As analyte in solution wt human CCL2 or monomeric CCL2 P8A variant CCL2 were used. Analytes were injected at 90 nM highest concentration. The analyte contact time was 3 min and the dissociation time was 10 min. The Biaevaluation software V.3.0 was used according to the instructions of the manufacturer GEHC. A 1:1 binding model with RMAX local was applied to apparently estimate kinetic rates.

Experiment [15] has as its target T4, human CCL2 (MCP1) - P8A variant (human, UniProt P13500 24-99).
T4 construct: In-house point mutant that cannot dimerise; also called monomeric human CCL2; monomeric CCL2
Put plainly: SPR T200, 37 C, antibody captured, 1:1 model. As for the experimental part:
as §3

Experiment [16] has as its target T2, human CCL2 (MCP1) - wild type (wt). Put plainly: cell-based or functional assay. The source holds these as a separate data set.

One may read the Kd as the concentration at which binding is half-saturated. Lower therefore signals a tighter complex.

B1: P1AF8142 (CKLO2-CB-SG1095) (bispecific antibody)
chain 1: not shown
chain 2: QVQLVQSGAEVKKPGSSVKVSCKASGLTISHTYMHWVRQAPGQGLEWMGRIDPDNHNTKFDPKFQGRVTITADTSTSTAYMELSSLRSEDTAVYYCARGVFGFFEHWGQGTTVTVSSASTKGPSVFPLAPSSKSTSGGTAALGCLVKDYFPEPVTVSWNSGALTSGVHTFPAVLQSSGLYSLSSVVTVPSSSLGTQTYICNVNHKPSNTKVDKKVEPKSCGGSGGGGSGGDKTHTCPPCPAPELWNGPSVFLFPPKPKDTLMISRTPEVTCVVVDVSDEDPEVKFNWYVDGVEVHNAKTKPREELYNSTYRVVSVLTVLHRDWLNGKEYKCKVSNTALPKPIEKTISKAKGQRREPQVYTLPPCRDELTKNQVSLWCLVKGFYPSDIAVEWESNGQPENNYKTTPPVLDSDGSFFLYSKLTVDKSRWQQGNVFSCSVMHEALHAHYTRKELSLSPGKGGSGGGGSGGDIQMTQSPSSLSASVGDRVTITCKAFEDIYNRRAWYQQKPGKAPKLLIHGATSLEHGVPSRFSGSGSGTDYTLTISSLQPEDFATYYCQQFWSAPYTFGGGTKVEIKRTVAAPSVFIFPPSDEQLKSGTASVVCLLNNFYPREAKVQWKVDNALQSGNSQESVTEQDSKDSTYSLSSTLTLSKADYEKHKVYACEVTHQGLSSPVTKSFNRGEC
Turning to B1, in [1], the “Depletion level max (%) of CCL2 from the supernatant” value stood at 80%, the “EC50 [nM] of CCL2 depletion” value turned out to be 0.13 nM and the “EC90 [nM] of CCL2 depletion” value stood at 0.5 nM. Further, in experiment [2], the “IC50, inhibition of THP-1 migration (chemotaxis assay)” value was 0.2 µg/mL. Besides, the “EC50 (read off the curve) of the depletion of CCL2 from the supernatant of FcγRIIa CHO cells” value in experiment [3] is about 0.1 nM.

B2: CKLO2-GG03/GG04 (=P1AF8140) (bispecific antibody)
heavy 1: DIQMTQSPSSLSASVGDRVTITCKAFEDIYNRRAWYQQKPGKAPKLLIHGATSLEHGVPSRFSGSGSGTDYTLTISSLQPEDFATYYCQQFWSAPYTFGGGTKVEIKSSASTKGPSVFPLAPSSKSTSGGTAALGCLVKDYFPEPVTVSWNSGALTSGVHTFPAVLQSSGLYSLSSVVTVPSSSLGTQTYICNVNHKPSNTKVDKKVEPKSCDKTHTCPPCPAPEYLGGDSVFLFPPKPKDVLMISRTPEVTCVVIDVSHEDPEVKFNWYVDGVEVHNAKTKPREEQYNSTYRVVSVLPVLHRDWLNGKEYKCKVSNKALPKPIEKTISKAKGQRREPQVYTLPPCREEMTKNQVSLWCLVKGFYPSDIAVEWESNGQPENNYKTTPPVLDSDGSFFLYSKLTVDKSRWQQGNVFSCSVMHEALHAHYTRKELSLSP
heavy 2: not shown
light 1: QVQLVQSGAEVKKPGSSVKVSCKASGLTISHTYMHWVRQAPGQGLEWMGRIDPDNHNTKFDPKFQGRVTITADTSTSTAYMELSSLRSEDTAVYYCARGVFGFFEHWGQGTTVTVSSASVAAPSVFIFPPSDEQLKSGTASVVCLLNNFYPREAKVQWKVDNALQSGNSQESVTEQDSKDSTYSLSSTLTLSKADYEKHKVYACEVTHQGLSSPVTKSFNRGEC
light 2: EIVLTQSPATLSLSPGERATLSCRASQHVSDAYLAWYQQKPGQAPRLLIYDASDRAEGVPARFSGSGSGTDFTLTISSLEPEDFAVYYCHQYIHLHSFTFGQGTKVEIKRTVAAPSVFIFPPSDRKLKSGTASVVCLLNNFYPREAKVQWKVDNALQSGNSQESVTEQDSKDSTYSLSSTLTLSKADYEKHKVYACEVTHQGLSSPVTKSFNRGEC
Regarding B2, in experiment [4], the “EC50 (read off the curve) of the depletion of CCL2 from the supernatant of FcγRIIb CHO cells” value was about 1 nM. The “IC50, inhibition of THP-1 migration (chemotaxis assay)” value in [2] is 0.3 µg/mL.

B3: ABN912 (antibody, IgG1, V domains shown)
VH: EVQLVQSGGGLVQPGGSLRLSCAASGFTFSHYWMSWVRQAPGKGLEWLANIEQDGSEKYYVDSVKGRFTISRDNAKNSLYLQMNSLRAEDTAVYFCARDLEGLHGDGYFDLWGRGTLVTVSS
VL: AIQLTQSPSSLSASVGDRVILTCRASQGVSSALAWYQQKPGKAPKLLIYDASSLESGVPSRFSGSGSGPDFTLTISSLQPEDFATYFCQQFNSYPLTFGGGTKVEIK
notes: IgG1 with kappa light chain; also called AB912; CCL2-0003
Consider B3, for which the Kd amounted to 2000 nM in experiment [5]; 13 nM in experiment [6]; 4 pM in experiment [7]; 1 nM in experiment [8]; 4 pM in experiment [9]; 0.01 nM in experiment [10]. The Kd in experiment [11] was determined as 0.02 nM; in [13] it was 0.2 nM; in experiment [14], 0.036 nM; in [15] it was 0.046 nM. Also, the “t 1/2-diss.” value in experiment [5] came out at 0.03 min; in experiment [6], 1 min; in experiment [7], 25 min; in experiment [8] it was 3 min; in [9], 35 min; in [10], 33 min. The “t 1/2-diss.” value in experiment [11] was 20 min; in experiment [13] it was 8 min. Further, in experiment [12], the “t 1/2*” value is 27 min. Further, the “T1/2” value in experiment [14] was 33 min; in experiment [15], 25 min. In addition, the “THP1 chemotaxis [fold change compared to IgG control]” value in experiment [16] worked out at 6.5 fold.
